Where “and” joins values, the source holds several entries; their conditions need not be identical. Equal values may be shown once.
Assays:
[1] = cited from earlier work; for bleomycin induced pulmonary fibrosis: Xu et al 2007
Ramos tumor cells = test: Apoptosis assay (annexin V / propidium iodide flow cytometry); assay type: cell-based, human; conditions: annexin V and propidium iodide double positive, 24 or 72 hours
Experimental: The ability of an i-body of the invention to induce apoptosis in Ramos tumor cells (a human Burkitt's lymphoma cell line) was examined in an apoptosis assay according to the methods as described in Mishra M et al (2011) J Cell Mol Med 15(11):2462-77. I-bodies were incubated with Ramos cells and examined by flow cytometry after 24 or 72 hours. The cells were stained for annexin V and propidium iodide which are classic markers for apoptosis. Cells which were double positive were assessed to have become apoptotic.

CXCR4 = CXCR4 (Homo sapiens, UniProt P61073); test: β-arrestin BRET assay, antagonist mode with 100 nM SDF-1; assay type: cell-based; set-up: expressed in transfected cells; host or cells: HEK293FT; conditions: for β-arrestin activity: various concentrations
Chain of CXCR4 (P61073 whole entry): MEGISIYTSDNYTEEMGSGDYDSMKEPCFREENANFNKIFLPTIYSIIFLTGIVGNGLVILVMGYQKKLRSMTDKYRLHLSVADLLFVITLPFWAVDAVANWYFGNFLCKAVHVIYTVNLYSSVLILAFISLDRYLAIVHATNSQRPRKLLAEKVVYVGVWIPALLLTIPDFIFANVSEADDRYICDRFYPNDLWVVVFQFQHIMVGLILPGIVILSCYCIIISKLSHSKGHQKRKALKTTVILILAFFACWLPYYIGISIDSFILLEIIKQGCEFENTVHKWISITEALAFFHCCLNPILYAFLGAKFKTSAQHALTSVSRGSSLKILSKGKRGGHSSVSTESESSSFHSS
Description: (FIGS. 3A-3F and 14) BRET was used in this study to assess the real-time kinetic profiles resulting from any consequent increase in proximity, building upon the previously validated monitoring of GPCR/β-arrestin interactions utilizing BRET. BRET occurs between a complementary Renilla luciferase (Rluc) variant as donor and green fluorescent protein variant as acceptor. Upon Rluc-catalyzed oxidation of the coelenterazine substrate (such as coelenterazine h for first generation BRET (BRET) or EnduRen for extended BRET (eBRET), energy is transferred to the acceptor if within 10 nm, resulting in acceptor light emission peaking at a characteristic wavelength. BRET (3-arrestin assays were carried out as described previously (See, H. B., Seeber, R. M., Kocan, M., Eidne, K. A. and Pfleger, K. D. (2011) ‘Application of G protein-coupled receptor-heteromer identification technology to monitor beta-arrestin recruitment to G protein-coupled receptor heteromers’, Assay Drug Dev Technol, 9(1), 21-30, 10.1089/adt.2010.0336). CXCR4/Rluc8 cDNA constructs were generated from plasmids containing the respective receptor cDNA tagged with Rluc kindly provided by Aron Chakera (Oxford University, United Kingdom). The β-arrestin 2/Venus cDNA construct was prepared previously from pCS2-Venus kindly provided by Atsushi Miyawaki (RIKEN Brain Science Institute, Wako-city, Japan). BRET technology in cells transiently expressing CXCR4/Rluc8 and β-arrestin2/Venus in the presence of 100 nM SDF-1 agonist was evaluated in the presence of the CXCR4 agonist SDF-1/CXCL12 and the i-bodies. HEK293FT cells were maintained at 37° C., 5% CO2 in Complete Media (Dulbecco's modified Eagle's medium containing 0.3 mg/mL glutamine, 100 IU/mL penicillin, and […] streptomycin; Gibco) supplemented with 10% fetal calf serum (FCS) and […] Geneticin (Gibco). Transfections were carried out 24 h after seeding using Genejuice (Novagen) according to manufacturer's instructions. Cells were harvested with 0.05% Trypsin-EDTA (Gibco). HEK293FT cells were transfected using FuGene6 (Promega). 5 μM coelenterazine h (Promega) in HBSS was used as the luciferase substrate solution. Cells were harvested 24 h post-transfection in HEPES-buffered phenol red-free Complete Medium containing 5% FCS and added to a poly-L-lysine-coated white 96-well plate (Nunc). Dose-response curves were generated using BRET, with medium in the plate being replaced with PBS containing […] coelenterazine h (Molecular Probes) and assays carried out immediately. For these assays, 48 h post-transfection, the plate was incubated at […], 5% CO2 for 2 h with […] EnduRen (Promega) to ensure substrate equilibrium was reached. All BRET measurements were taken at 37° C. using the VICTOR Light plate reader with Wallac 1420 software (PerkinElmer). Filtered light emissions were sequentially measured at 400-475 and 520-540 nm. The BRET signal was calculated by subtracting the ratio of 520-540 nm emission over 400-475 nm emission for a vehicle-treated cell sample from the same ratio for a second aliquot of the same cells treated with agonist (in this instance in the presence of SDF-1 or CXCL12) and i-body (ADCX-99, ADCX-272, ACDX-6, ACDX-306, ADCX-668) at various concentrations. Data are mean±S.E.M. of four independent experiments carried out in duplicate.
Binding of the i-bodies to CXCR4 were examined in a β-Arrestin BRET assay as described in See, Heng B et al (2011) Assay and Drug Development Technologies 9(1):21-30. The i-bodes were examined at ten concentrations with and without 100 nM SDF-1 with the addition of ‘vehicle’ and ‘SDF-1+vehicle’ controls in order to characterise if the i-bodies are agonist or antagonists of CXCR4 activity.

CCL2 and CCL5 protein = test: CCL2, CCL5, CXCL12 ELISA of fibroblast conditioned supernatants; assay type: cell-based, human; conditions: 48 hours
Description: Various reports indicate that CXCR4 signals in conjunction with other chemokine receptors, including CCR2.

[2] = molecular target: T1, human CXCR4 (CXCR4 positive lipoparticles) (Homo sapiens, UniProt P61073); test: Biacore SPR kinetic binding to immobilised CXCR4 lipoparticles
T1 construct: purchased Integral Molecular LEV-101B
T1 sequence (P61073 whole entry): as above
Experimental: (FIGS. 2A-2C, 5A-5C, 11A-11D, 17A-17B) Kinetic binding analysis of selected i-bodies with immobilized CXCR4 lipoparticles were performed at 25° C. using Biacore T200 instrument (GE Healthcare, Uppsala, Sweden). Streptavidin immobilization was performed in 1×HBS-P+ running buffer (10 mM HEPES, 150 mM NaCl, 0.05% [v/v] Tween-20). […] All binding experiments involving lipoparticles were performed with 1×HBS/BSA (10 mM HEPES, 150 mM NaCl, 1 mg/mL BSA) as instrument running buffer. […] In order to determine binding kinetics, serial dilutions (three-fold) of i-bodies diluted in 1×HBS/BSA were injected over immobilized lipoparticles with the association and dissociation phases monitored for 60 sec and 600 sec, respectively. A control measurement of the instrument running buffer (“zero-buffer” blank) solution was also included for double referencing purposes. Collected experimental data were processed using Scrubber software (www.biologic.com.au). Kinetic parameters (ka=association and kd=dissociation rate constants) and equilibrium dissociation constant (KD=kd/ka) were derived by fitting each set of experimental data to a Langmuir 1:1 binding model. All interaction measurements were performed in triplicate and the derived binding parameters reported as averaged values±standard deviation.

[3] = mouse, in vivo, iv, 2 mg/kg
Experimental: A series of blood samples from all mice (0.3 mL, 2 time point/mouse 3/group/time point) were collected following dosing as follows:
For this purpose, each mouse (CD-1 mouse) was bled via the saphenous vein or under isoflurane anaesthesia by cardiac puncture and the samples collected into tubes containing the anticoagulant, K2-EDTA. Tubes were placed on wet ice pending processing. Following its last blood sampling, each animal was euthanized by cervical dislocation and discarded without further examination.
Following collection, the samples were centrifuged (approximately 4° C.) and the resulting plasma was recovered in two separate aliquots and stored frozen (60° C.) in labeled Protein LoBind 1.5 mL tubes (Eppendorf, cat no. 022431081).

[4] = CXCR4 expressed on lipoparticles (Table 4)

Q: For TN14003, which “bleomycin induced pulmonary fibrosis” value [1] is on record?
A: The value was “blocks development of pulmonary fibrosis”.

Q: What does the source list for c1cnc(NCc2ccc(CNc3ncccn3)cc2)nc1 [MSX-122]?
A: development of pulmonary fibrosis in irradiated mice ([1]; Shu et al 2013): significant reductions in development of pulmonary fibrosis; bleomycin induced pulmonary fibrosis [1]: completely preventing bleomycin-induced lung fibrosis

Q: Which “induction of apoptosis in Ramos cells” value (Ramos tumor cells) does the source give for C/C=C(/C)C(=O)O[C@H]1C(C)=C2[C@H]([C@@H]1OC(=O)CCCCCCC)[C@@](C)(OC(C)=O)C[C@H](OC(=O)CCC)[C@@]1(O)[C@H]2OC(=O)[C@@]1(C)O [Thapsigargin, reference compound] here?
A: Its value is “expected level of apoptosis”.

B1: ADCX-6: CXCR4 binding i-body, SEQ ID NO: 17 (protein)
chain: LQVDIVPSQGEISVGESKFFLCQVAGLTSLEGISWFSPNGEKLTPNQQRISVVWNDDSSSTLTIYNANIDDAGIYKCVVEDHPQYSKMEEATVNVKIFQ
modifications: protein sequence encoding ADCX-6
Q: Which β-arrestin activity (CXCR4) does the source give for B1 here?
A: The β-arrestin activity was “some degree of inhibition”.

B2: ADCX-306: CXCR4 binding i-body, SEQ ID NO: 29 (protein)
chain: LQVDIVPSQGEISVGESKFFLCQVAGFQEWVNWFSPNGEKLTPNQQRISVVWNDDSSSTLTIYNANIDDAGIYKCVVTMPHTLNNLDVRTEATVNVKIFQ
modifications: protein sequence encoding ADCX306
Q: For B2, which β-arrestin activity (CXCR4) is on record?
A: Its β-arrestin activity is “some degree of inhibition”.

B3: ADCX-668: CXCR4 binding i-body, SEQ ID NO: 26 (protein)
chain: LQVDIVPSQGEISVGESKFFLCQVAGTIWYEQISWFTPNGEKLTPNQQRISVVWNDDSSSTLTIYNANIDDAGIYKCVVWTRPVTSSMHEATVNVKIFQ
modifications: protein sequence encoding ADCX-668
Q: For B3, which β-arrestin activity (CXCR4) is on record?
A: Its β-arrestin activity is “some degree of inhibition”.

B4: AM3-523-6H: AM3-523 with 6 His tag, containing the N-terminal sequence EAEA (protein)
chain: EAEALQVDIVPSQGEISVGESKFFLCQVAGSGSHMRISWFSPNGEKLTPNQQRISVVWNDDSSSTLTIYNANIDDAGIYKCVVWRVGGYRHRALVLGEATVNVKIFQ
modifications: left off: small tags and cut ends
Q: For B4, which “induction of apoptosis in Ramos cells” value (Ramos tumor cells) is on record?
A: The value was “strongly induce apoptosis”.

B5: 21H5-6H: control iBody 21H5 with 6 His tag (protein)
chain: LQVDIVPSQGEISVGESKFFLCQVAGDAKDKDISWFSPNGEKLTPNQQRISVVWNDDSSSTLTIYNANIDDAGIYKCVVTGSDAMSNYSYPISESEATVNVKIFQ
Q: Which “CCL5 levels in IPF lung fibroblasts” value (CCL2 and CCL5 protein) does the source give for B5 here?
A: The value was “observed in one slow-IPF lung fibroblast line”.

B6: AM3-920: affinity matured CXCR4 i-body, SEQ ID NO: 44 (protein)
chain: LQVDIVPSQGEISVGESKFFLCQVAGSGSGIRISWFSPNGEKLTPNQQRISVVWNDDSSSTLTIYNANIDDAGIYKCVVWRTGGYRHRYLVLGEATVNVKIFQ
modifications: protein sequence encoding AM3-920
Q: Which Ka [2, 4] does the source give for B6 here?
A: The Ka was 1.117e+06 M⁻¹ s⁻¹ and 1.26e+06 M⁻¹ s⁻¹.

Q: What about the “dissociation rate constant (kd)” value [2, 4] of the same molecule?
A: The value was 8020 M⁻¹ s⁻¹ and 7410 M⁻¹ s⁻¹.

Q: What about the “dissociation rate constant (kd)” value ([2]; off-rate, CXCR4 expressed on lipoparticles (Table 3)) of the same molecule?
A: Its value is 0.00817.

Q: What about the “IC50 in β-Arrestin BRET assay (Antagonist mode in the presence of 100 nM SDF-1)” value (CXCR4; only an order of magnitude is printed in the cell) of the same molecule?
A: Its value is “~uM”.

B7: AM3-114-Im7-FH-SA21: dual specificity i-body, AM3-114 with 18-residue HSA binding peptide SA21, SEQ ID NO: 80 (protein)
chain: MALQVDIVPSQGEISVGESKFFLCQVAGSLSGIRISWFSPNGEKLTPNQQRISVVWNDDSSSTLTIYNANIDDAGIYKCVVWRTGGYRHRYLVLGEATVNVKIFQGGGGSELKNSISDYTEAEFVQLLKEIEKENVAATDDVLDVLLEHFVKITEHPDGTDLIYYPSDNRDDSPEGIVKEIKEWRAANGKPGFKQGGGGGSDYKDDDDKGSGHHHHHHHHGGGGSRLIEDICLPRWGCLWEDD
modifications: protein sequence encoding AM3-114-Im7-FH-SA21 dual specificity ibody
Q: For B7, which AUC0-T [3] is on record?
A: The AUC0-T was 25266 ng·h/mL.

Q: What about the “Auc0-∞” value [3] of the same molecule?
A: The value was 25544 ng·h/mL.

Q: What about the C0 [3] of the same molecule?
A: Its C0 is 23284 ng/mL.

Q: And the ClTOT [3]?
A: Its ClTOT is 1.3049 mL/min/kg.

Q: What about the Thalf [3] of the same molecule?
A: The Thalf was 0.95 h.

Q: And the Tlast [3]?
A: The Tlast was 6.00 h.

Q: And the VD [3]?
A: The VD was 0.107571 L/kg.

Q: And the λZ [3]?
A: The λZ was 0.7279 h⁻¹.
